± gives the standard deviation of the averaged measurements.
B1: library; a variant is named by its letters at N, in order (parent)
chain: GCUGUCACCGAGAAACUGUGAAGUAUAUCUUAAACCUGGGCACUUAAAAGAUAUAUGGAGUUAGUAGUGCAACCUGCUCGGUCUGAUGAGUCCNNNNNNGGACGAAACAGC

Legend:
cyclic di-GMP [1] = variants of: B1; assay: normalized RNA/DNA level without ligand (relative to sTRSVctl = 100) (log10 (% of sTRSVctl)); HEK293T; ligand: cyclic di-GMP (c-di-GMP-II aptamer); higher = less ribozyme self-cleavage, higher mRNA level; details: reporter: mCherry (pCS4076), ligand present: no
How it was run: (§1)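 Ribozyme switch library plasmids with mCherry reporters (eGFP in certain ligand experiments) went into HEK293T cells at 4 µg per 6-well well. Where ligand was used, it was applied 1 h before transfection, and total RNA was extracted with EDTA 72 h later for reverse transcription, amplification, barcoding and sequencing. RNA level is the RNA-to-DNA read ratio normalized to a spiked-in non-cleaving sequence or to the leading sequences, then scaled and log-transformed. Scaling was ×100 with log10, the leading set comprised 25 sequences, and the cutoff was ≥100 DNA reads.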

cyclic di-GMP [2] = variants of: B1; assay: normalized RNA/DNA level with ligand (relative to sTRSVctl = 100) (log10 (% of sTRSVctl)); HEK293T; ligand: cyclic di-GMP (c-di-GMP-II aptamer); ligand concentration (+) RNA-Seq: 1 mM; higher = less ribozyme self-cleavage, higher mRNA level; details: reporter: mCherry (pCS4076), ligand present: yes
How it was run: as §1

Variant | normalized RNA/DNA level without ligand (log10) (cyclic di-GMP [1]) | normalized RNA/DNA level with ligand (log10) (cyclic di-GMP [2])
GAUGUU | 1.62 ± 0.037 | 1.78 ± 0.086
CAGCCU | 1.59 ± 0.055 | 1.79 ± 0.12
CAGACG | 1.681 ± 0.013 | 1.77 ± 0.088
ACGCCA | 1.675 ± 0.012 | 1.87 ± 0.09
AAUCCC | 1.77 ± 0.032 | 1.86 ± 0.087
GAGUAC | 1.8 ± 0.059 | 1.87 ± 0.11
UUGUUU | 1.78 ± 0.041 | 1.92 ± 0.085
UGACGU | 1.57 ± 0.12 | 1.74 ± 0.13
CUAUUC | 1.7 ± 0.012 | 1.85 ± 0.1
UGCGGA | 1.559 ± 0.0066 | 1.78 ± 0.12
CCCGCC | 1.8 ± 0.13 | 1.92 ± 0.16
ACUCUG | 1.602 ± 0.0083 | 1.81 ± 0.096
AAGCGG | 1.81 ± 0.035 | 1.88 ± 0.069
AGCAAC | 1.65 ± 0.032 | 1.77 ± 0.092
CGAUGU | 1.75 ± 0.025 | 1.91 ± 0.11
UGGUUG | 1.686 ± 0.011 | 1.83 ± 0.11
UGGUUA | 1.67 ± 0.019 | 1.85 ± 0.042
AUGGAG | 1.55 ± 0.1 | 1.68 ± 0.084
CCCCCG | 1.79 ± 0.027 | 1.84 ± 0.071
CGAAAG | 1.78 ± 0.056 | 1.88 ± 0.046

Variant | normalized RNA/DNA level without ligand (log10) (cyclic di-GMP [1]) | normalized RNA/DNA level with ligand (log10) (cyclic di-GMP [2])
CCACUG | 1.39 ± 0.042 | 1.63 ± 0.12
CAUCUU | 1.56 ± 0.04 | 1.75 ± 0.1
AGCUAG | 1.54 ± 0.026 | 1.72 ± 0.16
UCAGCC | 1.818 ± 0.0024 | 1.88 ± 0.14
UCUGUC | 1.75 ± 0.035 | 1.87 ± 0.1
AUGACA | 1.581 ± 0.013 | 1.72 ± 0.14
UAUCCU | 1.755 ± 0.013 | 1.87 ± 0.13
UAGAAC | 1.641 ± 0.014 | 1.82 ± 0.13
UAUUCC | 1.77 ± 0.029 | 1.88 ± 0.12
AAUUCA | 1.62 ± 0.078 | 1.8 ± 0.12
UAGGCG | 1.768 ± 0.013 | 1.87 ± 0.12
UAAAAU | 1.615 ± 0.00033 | 1.79 ± 0.099
GUGCCA | 1.785 ± 0.015 | 1.9 ± 0.12
UCCGCG | 1.774 ± 0.0088 | 1.89 ± 0.083
UACGCC | 1.77 ± 0.021 | 1.87 ± 0.12
UUGUGU | 1.716 ± 0.015 | 1.88 ± 0.11
UCUUAA | 1.64 ± 0.07 | 1.81 ± 0.044
AACGGC | 1.68 ± 0.017 | 1.8 ± 0.071
AACAUU | 1.7 ± 0.037 | 1.84 ± 0.067
AGUUCU | 1.69 ± 0.027 | 1.87 ± 0.056

Variant | normalized RNA/DNA level without ligand (log10) (cyclic di-GMP [1]) | normalized RNA/DNA level with ligand (log10) (cyclic di-GMP [2])
ACGCGC | 1.629 ± 0.016 | 1.79 ± 0.11
UGUUUG | 1.77 ± 0.014 | 1.91 ± 0.12
CACUGC | 1.76 ± 0.024 | 1.87 ± 0.096
CAGUGA | 1.52 ± 0.043 | 1.7 ± 0.12
AAUUAG | 1.6 ± 0.029 | 1.76 ± 0.11
CCUCAU | 1.65 ± 0.064 | 1.81 ± 0.057
AGUCAG | 1.571 ± 0.011 | 1.73 ± 0.16
ACAAAC | 1.55 ± 0.084 | 1.72 ± 0.091
GACAUC | 1.67 ± 0.037 | 1.84 ± 0.059
CAUCGG | 1.78 ± 0.048 | 1.84 ± 0.12
GAGUGG | 1.84 ± 0.043 | 1.9 ± 0.12
CUGCUU | 1.6 ± 0.06 | 1.76 ± 0.09
UGGAUU | 1.669 ± 0.0092 | 1.81 ± 0.13
CACUCU | 1.6 ± 0.019 | 1.77 ± 0.12
GUGACC | 1.67 ± 0.065 | 1.824 ± 0.015
CGUAUG | 1.73 ± 0.019 | 1.86 ± 0.13
CCGUUU | 1.53 ± 0.058 | 1.71 ± 0.14
GUGUGU | 1.595 ± 0.003 | 1.77 ± 0.12
